Where a chain is given by its changes, count along the chain named. One block for each binder: values may come before it.
Tests used:
B7H3-hFc = biological target: T1, B7H3-hFc (UniProt Q5ZPR3 29-466, limits assumed); experiment: ELISA, B7H3-hFc coated plate, purified hybridoma antibody
T1 construct: Construct limits, linker and Fc not described; also called B7H3-hFc protein; not shown: human Fc (hFc)
T1 sequence (looked up): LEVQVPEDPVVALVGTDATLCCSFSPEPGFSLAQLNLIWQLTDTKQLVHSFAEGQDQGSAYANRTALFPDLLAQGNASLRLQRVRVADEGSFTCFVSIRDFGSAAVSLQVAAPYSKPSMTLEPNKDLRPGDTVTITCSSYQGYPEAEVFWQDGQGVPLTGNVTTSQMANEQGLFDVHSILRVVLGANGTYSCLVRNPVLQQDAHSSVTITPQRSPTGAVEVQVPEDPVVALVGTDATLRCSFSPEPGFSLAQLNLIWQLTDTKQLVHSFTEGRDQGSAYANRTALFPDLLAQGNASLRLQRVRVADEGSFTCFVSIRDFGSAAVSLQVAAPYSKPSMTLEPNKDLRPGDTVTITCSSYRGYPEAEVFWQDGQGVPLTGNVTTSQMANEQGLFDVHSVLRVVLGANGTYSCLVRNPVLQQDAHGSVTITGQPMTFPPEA
Method: (1) Screening of B7H3-binding positive clones through ELISA: 50 μL of B7H3-hFc (final concentration: 2 μg/mL) was used to coat each well of a 96-well ELISA plate (Corning, Cat. No.: 9018), and incubated overnight at room temperature. After the ELISA plate was rinsed with washing buffer (PBS+0.05% Tween20) 3 times, blocking buffer (PBS+2% BSA (Sigma, Cat. No.: V90093)) was added and the ELISA plate was incubated at room temperature for 1 hour. The ELISA plate was rinsed with washing buffer 3 times; and hybridoma supernatant was added, and the ELISA plate was incubated at room temperature for 1 hour and rinsed 3 times. 100 μL of 10,000-fold diluted HRP-conjugated goat anti-mouse IgG secondary antibody (Thermo, Cat. No.: 31432) was added to each well, and the ELISA plate was incubated at room temperature for 1 hour in the dark and rinsed 3 times. 100 μL of TMB (Biocytogen, Cat. No.: ES-002) was added to each well, and the ELISA plate was incubated at room temperature for color development for 2 minutes, 100 μL of reaction terminating solution (2N H2SO4) was added to each well to terminate the color reaction, and an OD450 value of each well was read using a microplate reader (Tecan Spark). (2) Screening of B7H3-binding positive clones through FACS: 50 μL of the positive hybridoma supernatant or purified hybridoma antibody in the foregoing test was mixed with 50 μL of 293T-B7H3 cells (2×10⁵ cells/well), and a resulting mixture was added to a 96-well plate with a U-shaped bottom and left standing at 4° C. for 1 hour, the 96-well plate was rinsed with FACS buffer (PBS+3% FCS) and centrifuged twice, then 400-fold diluted PE-labeled goat anti-mouse secondary antibody (Biolegend, Cat. No.: 405307) was added, the 96-well plate was incubated at 4° C. for 30 minutes in the dark, rinsed with FACS buffer and centrifuged twice, and signal values of the cells in a PE channel were detected by using BD Accuri C6 flow cytometer. (3) Subcloning: Positive multiclonal hybridoma cells identified by ELISA and FACS were subcloned using the limiting dilution method. The subclones were further detected and screened using ELISA and FACS to obtain positive hybridoma monoclonal clones.
ELISA and FACS were conducted to detect the binding ability of purified antibody samples to B7H3. Results are shown in FIG. 1(a-b), FIG. 2(a-b) and Table 1.

[1] = biological target: T2, B7H3 on the cell surface (PC9 cells; 293T-B7H3 cells) (UniProt Q5ZPR3 29-534, limits assumed); experiment: FACS on cells carrying B7H3 (PC9 per FIG. 2; 293T-B7H3 per method)
T2 construct: whole, on cells; both carry B7H3 on the surface; also called Cell Surface B7H3; B7H3 protein in PC9 cells
T2 sequence (looked up): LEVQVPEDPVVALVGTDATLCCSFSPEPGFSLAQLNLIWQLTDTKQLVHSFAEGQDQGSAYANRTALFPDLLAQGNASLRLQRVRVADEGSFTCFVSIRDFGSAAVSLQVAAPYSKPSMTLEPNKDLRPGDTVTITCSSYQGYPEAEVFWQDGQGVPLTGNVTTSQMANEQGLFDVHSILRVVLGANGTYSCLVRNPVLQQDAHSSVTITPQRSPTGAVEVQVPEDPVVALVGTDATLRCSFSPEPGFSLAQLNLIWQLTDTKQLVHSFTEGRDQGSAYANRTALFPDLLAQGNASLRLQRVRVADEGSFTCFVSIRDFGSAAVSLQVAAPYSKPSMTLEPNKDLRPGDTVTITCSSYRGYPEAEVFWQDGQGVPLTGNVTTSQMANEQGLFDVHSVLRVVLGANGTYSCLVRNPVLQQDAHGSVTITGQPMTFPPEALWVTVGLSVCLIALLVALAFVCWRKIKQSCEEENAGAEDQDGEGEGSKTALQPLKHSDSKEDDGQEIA

B1: 7C9 (antibody, mouse IgG1, V domains shown)
VH: EVQLQQSGTELVRPGALVKLSCKASALNIKDFYMHWVKQRPERGLEWIGWIDPDNGNTIYDPKFQGKASITADISSSTAYLQLSSLTSEDTAVYYCARSSTRQRPFDYWGQGTTLTVSS
VL: DIVMTQSHKVMSTSVGDRVSITCKASQDVRTGVAWYQQKPGQSPKLLIYSAFYRYTGVPDRFTVSGSGADFTFTITSVQAEDLAVYYCQQYYSIPWTFGGGTKLEIK
notes: Murine hybridoma antibody; also called B7H3 hybridoma monoclonal antibody 7C9
EC50 (B7H3-hFc): 0.0099 µg/mL
EC50 [1]: 0.103 µg/mL

B3: 2F7 (antibody, mouse IgG2b, V domains shown)
VH: QVQLQQPGAELVKPGASVKLSCKASGYTFTSYYIYWLKQRPGQGLEWIGGIKPSNGDTNFNAKFMNKATLTVDKSSSTAYMQLSSLTSEDSAIYYCTRFFYGSPYDFDVWGAGTTVTVSS
VL: NIVMTQSPKSMSMAVGERVTLTCKASENVDTHVSWYQQKPEQSPTLLMYGTSNRFTGVPDRFTGSGSATDFTLTISSVQAEDLADYHCGQSYRYPYTFGGGTKLEIK
notes: Murine hybridoma antibody; also called B7H3 hybridoma monoclonal antibody 2F7
EC50 (B7H3-hFc): 0.00278 µg/mL
EC50 [1]: 0.177 µg/mL

B8: 2F12 (antibody, mouse IgG1, V domains shown)
VH: EVQLQQSGPELVKSGASVNISCKTSGYTFTENTMHWVKLSHGKSLEWIGGINPNNGGTTYNQKFKGKATLTVDKSSSTAYMELRSLTSEDSAVYYCARRGRWPPDWYFDVWGAGTTVTVSS
VL: QIVLTQSPAIMSASPGEKVTMTCSASSSLSYMHWYQQKSGTSPKRWIYDTSKLASGVPARFSGSGSGTSYSLTISSMEAEDAATYYCQQWSSNPLTFGAGTKLELK
notes: Murine hybridoma antibody; also called B7H3 hybridoma monoclonal antibody 2F12
EC50 [1]: 0.217 µg/mL

B9: 5B6 (antibody, mouse IgG1, V domains shown)
VH: QVQLQQSGAELARPGASVKMSCKTSGYTFITYTIHWVKQRPGQGLEWIGYINPTSDYANFNQKFKDKATLTADKSSRTAYMQLSSLTSEDSAVYYCARWGTTVFQFYFDYWGQGTTLTVSS
VL: QIVLSQSPAILSASPGEKVTMTCRASQSLSYINWYQLKPGSSPKPWIYATSSLQSGVPARFSGSASGTSYSLTISRVEAEDAATYFCQHWSSDPPTIGGGTKLEIK
notes: Murine hybridoma antibody; also called B7H3 hybridoma monoclonal antibody 5B6
EC50 (B7H3-hFc): 0.00493 µg/mL
EC50 [1]: 0.0713 µg/mL

B11: 15A2 (antibody, mouse IgG1, V domains shown)
VH: QVQLQQSGPEVVKPGALVRISCKASGYTFTSYDINWVKQRPGQGLEWIGWIDPGDGSTKYNEKFKGKATLTADKSSSTAYMQFSSLTSENSAVYFCVRRGFDYWGQGTTLTVSS
VL: QILLTQSPAIMSASPGEKVTMTCRTSSSVSYLHWFQQKPGSSPKLWIHDTSNLASGFPARFSGSGSGTSYSLIISSMEAEDAATYYCHQRSSYPWTFGGGTKLEIK
notes: Murine hybridoma antibody; also called B7H3 hybridoma monoclonal antibody 15A2
EC50 (B7H3-hFc): 0.00151 µg/mL
EC50 [1]: 0.0062 µg/mL

B12: 7E6 (antibody, mouse IgG1, V domains shown)
VH: QVQLQQSGPELVRPGVSVKISCKGSGYTFTDYAMHWVKQSHAKSLEWIGVINSYYGNTHYNQKFKGKATMTVDKSSSTAYMELARLTSEDSAIYYCARAGGYSYGSSYRPDRFAYWGQGTLVIVSA
VL: DIQMTQSPASQSASLGESVTITCLASQTIGTWLAWYQQKPGKSPQLLIYAATNLADGVPSRFSGSGSGTKFSFKISSLQAEDFVSYYCQQLYSTPYTFGGGTKLEIK
notes: Murine hybridoma antibody; also called B7H3 hybridoma monoclonal antibody 7E6
EC50 (B7H3-hFc): 0.00449 µg/mL
EC50 [1]: 0.0526 µg/mL

B13: 14B3 (antibody, mouse IgG1, V domains shown)
VH: QVQLQQSGPELVRPGVSVKISCKGSGYTFTDHAIHWVKQSHAKSLEWIGVINTYSGNTNFNQKLKGKATMTVDKSSSTAYMELARLTSEDSAIYYCARGAHSSGYPYWYFDVWGAGTTVTVSS
VL: QIVLSQSPAILSASAGEKVTMTCRASSSVSYMHWYQQKPGSSPKPWIYATSNLASGVPARFSGSGSGTSYSLTISRVEAEDAATYYCQQWSTNPFTFGSGTKLEMK
notes: Murine hybridoma antibody; also called B7H3 hybridoma monoclonal antibody 14B3
EC50 (B7H3-hFc): 0.0091 µg/mL
EC50 [1]: 0.248 µg/mL

Continued, values first:

EC50 (B7H3-hFc): 0.0097 µg/mL
EC50 [1]: 0.179 µg/mL
B2: 7B7 (antibody, mouse IgG2b, V domains shown)
VH: EVKLVESGGGLVRPGGSLKLSCAASGFTFSSYAVSWVRQTPEKRLEWVASISGGGIYIYYPDSVKGRFTISRDNAKNNLYLQMNSLTPDDTALYYCARHGGAGYFDYWGQGTTLTVSS
VL: DSLMTQSPASLSASVGETVTITCRGSESVHSYLAWYQQKQGKSPQLLVYNAKTLQSGVPSRFSGSGSGTQFSLRINSLQPEDFGTYYCQQHYGSPPWTFGGGTILEIK
notes: Murine hybridoma antibody; also called B7H3 hybridoma monoclonal antibody 7B7

EC50 (B7H3-hFc): 0.0104 µg/mL
EC50 [1]: 0.0861 µg/mL
B4: 9C8 (antibody, mouse IgG1, V domains shown)
VH: EVQLQQSGPELVKPGASVKISCKTSGYTFTEYTIHWVKQSHGKSLEWIGGINPNSGGTTYNLKFKGKATLTVDKSSSTVYMELRSLTSEDSAVYYCARKEGFFTTDYWGQGTTLTVSS
VL: QTVLTQSPAIMSASPGEKVTMTCSASSSLSYIHWYRQKSGTSPKRWIYDTSNLATGVPVRFSGSGSGTSYSLTISSMEAEDAATYYCQQWHYNPPTFGGGTKLEIK
notes: Murine hybridoma antibody; also called B7H3 hybridoma monoclonal antibody 9C8

EC50 (B7H3-hFc): 0.0067 µg/mL
EC50 [1]: 0.234 µg/mL
B5: 2E10 (antibody, mouse IgG2a, V domains shown)
VH: EVQLQQSGPELVKPGASVKISCKTSGYTFTEYTMHWVKQSHGKNLEWIGGINTDNGGTTYSQKFKDKATLTVDRSSSTAYMVLRSLTSEDSAVYYCARSFNNYGPAWFAYWGQGALVTVSA
VL: DIVMTQSHKFMSTSIGDRVSITCKASQDVRSAVAWYQQRPGQSPKLLIYWASTRHTGVPARFTGSGSGTDYTLTINNVQSEDLAGYFCQQYSSYFTFGGGTKLEKK
notes: Murine hybridoma antibody; also called B7H3 hybridoma monoclonal antibody 2E10

EC50 (B7H3-hFc): 0.00052 µg/mL
EC50 [1]: 0.101 µg/mL
B6: 13A2 (antibody, mouse IgG2b, V domains shown)
VH: EVQLQQSGPELVKPGASVKISCKTSGYTFTEYVMHWVKQRHGQSLEWIGGINPNTGGTTYNQKFEGKATLTVDKSSSSAYMEFRSLTSEDSAVYYCARRMPFGISAMDYWGQGTSVTVSS
VL: B8 VL with L29V, M32I, Y35F, Y48S, D49E, E78G, Q88H, S91I, N93Y, L95P
notes: Murine hybridoma antibody; also called B7H3 hybridoma monoclonal antibody 13A2

EC50 (B7H3-hFc): 0.00624 µg/mL
EC50 [1]: 0.186 µg/mL
B7: 2A9 (antibody, mouse IgG2b, V domains shown)
VH: EVQLQQSGPELVKPGASVKISCKTSGYTFTEYIMHWVKQSRGKSLEWIGGINPNSGGTTYNEKFKGKATLTVDKSASTAYMELRSLTSEDSAIYYCARRMPYWYFDVWGAGTTVTVSS
VL: B8 VL with L29V, M32I, Q36R, I47V, S91V
notes: Murine hybridoma antibody; also called B7H3 hybridoma monoclonal antibody 2A9

EC50 (B7H3-hFc): 0.00576 µg/mL
EC50 [1]: 0.197 µg/mL
B10: 7F5 (antibody, mouse IgG1, V domains shown)
VH: EVQLQQSGAELVRPGALVKLSCKTSGFNIKAYYIHWVKQRPEQGLEWIGWIDPENGNTFYDPKFQGKASITADTSSNTAYLQLSSLTSEDAAVYYCTRSSTRLRPFDYWGQGTTLTVSS
VL: DIVMTQAAFSNPVTLGTSASISCRSSKSLLHSNGITYLYWYLQKSGQSPQLLIYQMSNLASGVPDRFSSSGSGTDFTLRISRVEAEDVGVYYCAQNLELYTFGGGTKLEIK
notes: Murine hybridoma antibody purified by protein A; also called B7H3 hybridoma monoclonal antibody 7F5
